Reference: FireProtDB (doi:10.1021/bi00185a025)

Settings: Escherichia coli (strain K12); pH 7; 25 °C; Urea; CD; Sodium phosphate 5 mM; reversible: yes; whole UniProt chain shown

B1: Chemotaxis protein CheY wild type, P0AE67 (protein)
chain: MADKELKFLVVDDFSTMRRIVRNLLKELGFNNVEEAEDGVDALNKLQAGGYGFVISDWNMPNMDGLELLKTIRADGAMSALPVLMVTAEAKKENIIAAAQAGASGYVVKPFTAATLEEKLNKIFEKLGM
  denaturant m value: 1.6 kcal/mol/M
  denaturant midpoint (higher = more stable): 3.25 M
  unfolding free energy: 21.8 kJ/mol
